Measured values published in doi:10.1101/2023.01.21.525003 (bioRxiv, 2023).

Molecular target: Gluc-LHCGRv4 (Gaussia luciferase fused to the N-terminus of the luteinizing hormone/chorionic gonadotropin … (human, UniProt P22888 27-699))
Assay: FRET or BRET

Gluc-LHCGRv4 (Gaussia luciferase fused to the N-terminus of the luteinizing hormone/chorionic gonadotropin …, sequence (P22888 27-699): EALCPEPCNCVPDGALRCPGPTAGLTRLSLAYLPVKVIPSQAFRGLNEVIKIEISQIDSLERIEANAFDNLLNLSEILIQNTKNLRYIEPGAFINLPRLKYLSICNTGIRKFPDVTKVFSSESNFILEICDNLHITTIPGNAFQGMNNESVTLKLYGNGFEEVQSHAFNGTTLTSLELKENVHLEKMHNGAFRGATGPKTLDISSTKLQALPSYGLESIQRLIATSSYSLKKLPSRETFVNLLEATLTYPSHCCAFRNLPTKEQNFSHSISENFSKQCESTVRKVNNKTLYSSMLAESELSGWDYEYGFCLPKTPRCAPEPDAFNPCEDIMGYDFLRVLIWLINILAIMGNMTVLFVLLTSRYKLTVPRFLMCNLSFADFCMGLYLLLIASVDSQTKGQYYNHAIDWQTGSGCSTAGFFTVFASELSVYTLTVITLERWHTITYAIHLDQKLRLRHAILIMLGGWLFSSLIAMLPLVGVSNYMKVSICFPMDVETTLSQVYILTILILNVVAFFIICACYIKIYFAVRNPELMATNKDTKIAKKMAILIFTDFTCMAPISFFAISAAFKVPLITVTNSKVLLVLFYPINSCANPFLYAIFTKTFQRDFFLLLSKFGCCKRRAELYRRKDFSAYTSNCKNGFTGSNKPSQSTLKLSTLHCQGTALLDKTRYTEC

BRET ratio, fold over stimulation with unlabeled hormone: 4 fold
B1: LHB^WT-eGFP/CGA (luteinizing hormone: LH beta subunit fused to eGFP, co-expressed with the common glycoprotein alpha subunit) (complex)
chain 1: SREPLRPWCHPINAILAVEKEGCPVCITVNTTICAGYCPTMMRVLQAVLPPLPQVVCTYRDVRFESIRLPGCPRGVDPVVSFPVALSCRCGPCRRSTSDCGGPKDHPLTCDHPQLSGLLFL
chain 2: not shown
